The source of these data is PMC5085265.

Test [1] deals with ^C38/C81/C96M1 (variant lacking the hydrophobic mutations) (UniProt P0ABE7).
Test [2] addresses ^C38/C81/C96R1 (triple Cys mutant of the cytochrome cb562 variant RIDC1). The test can be described thus: AUC.
Test [3] shares this target.

On to “^C38/C81/C96M1 (variant lacking the hydrophobic mutations) (from UniProt P0ABE7 23-128)”, for which the yield of the tetrameric species in test [1] was 16%.

With “^C38/C81/C96R1 (triple Cys mutant of the cytochrome cb562 variant RIDC1)”, in test [2], the stoichiometry N was 4. In test [3], the yield of the tetrameric species came to 47% and the yield of the tetrameric species with 1.5-fold molar excess of Zn2+ amounted to 53%.
